According to IntAct's records for PubMed 10026153:

B1: Tyrosine-protein kinase CSK (Homo sapiens), P41240 (parent)
chain: MSAIQAAWPSGTECIAKYNFHGTAEQDLPFCKGDVLTIVAVTKDPNWYKAKNKVGREGIIPANYVQKREGVKAGTKLSLMPWFHGKITREQAERLLYPPETGLFLVRESTNYPGDYTLCVSCDGKVEHYRIMYHASKLSIDEEVYFENLMQLVEHYTSDADGLCTRLIKPKVMEGTVAAQDEFYRSGWALNMKELKLLQTIGKGEFGDVMLGDYRGNKVAVKCIKNDATAQAFLAEASVMTQLRHSNLVQLLGVIVEEKGGLYIVTEYMAKGSLVDYLRSRGRSVLGGDCLLKFSLDVCEAMEYLEGNNFVHRDLAARNVLVSEDNVAKVSDFGLTKEASSTQDTGKLPVKWTAPEALREKKFSTKSDVWSFGILLWEIYSFGRVPYPRIPLKDVVPRVEKGYKMDAPDGCPPAVYEVMKNCWHLDAAMRPSFLQLREQLEHIKTHELHL

Variants of: B1
Details: with igf1r_human IGF1R

Variant	effect of a mutation on the interaction
S109C	disrupting interaction strength
